Like-named read-outs stand apart in the source and are kept apart here.
T1: mouse CD47, on CHOK1/mCD47 cells (mouse, UniProt Q61735 19-303)
T1 construct: whole, on cells; also called murine CD47
T1 sequence (looked up): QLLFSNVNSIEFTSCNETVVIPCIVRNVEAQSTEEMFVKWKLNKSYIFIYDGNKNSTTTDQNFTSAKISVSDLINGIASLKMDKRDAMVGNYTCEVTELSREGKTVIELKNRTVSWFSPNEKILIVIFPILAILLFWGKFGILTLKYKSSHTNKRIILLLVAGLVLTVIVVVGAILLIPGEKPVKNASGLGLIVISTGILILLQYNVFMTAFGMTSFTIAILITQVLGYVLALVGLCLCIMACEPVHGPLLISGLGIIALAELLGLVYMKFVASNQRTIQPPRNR

B1: 29A03 WT (antibody, V domains shown)
VH: EVQLQQSGAELVKPGASVKMSCKASGYTFTNYWITWVKQRPGQGLEWIGDIYPVSGGTDYNEKFKTRATLTVDTSSSTAYMHLSSLTSEDSAVYYCARKGRGGVDYWGQGTTLTVSS
VL: DILMTQTPLSLPVSLGDQASISCRSSQSIVHSNGNTYLEWYLQKPGQSPKLLIYKVSNRFSGVPDRFSGSGSGTDFTLKISRVEAEDLGVYFCSQSTHVPYTFGGGTKLEIK
notes: WT = NG site of CDR-L1 not mutated
B2: 29A03 QG (antibody, V domains shown)
VH: EVQLQQSGAELVKPGASVKMSCKASGYTFTNYWITWVKQRPGQGLEWIGDIYPVSGGTDYNEKFKTRATLTVDTSSSTAYMHLSSLTSEDSAVYYCARKGRGGVDYWGQGTTLTVSS
VL: DILMTQTPLSLPVSLGDQASISCRSSQSIVHSQGNTYLEWYLQKPGQSPKLLIYKVSNRFSGVPDRFSGSGSGTDFTLKISRVEAEDLGVYFCSQSTHVPYTFGGGTKLEIK
B3: c29A03NA (antibody, V domains shown)
VH: EVQLQQSGAELVKPGASVKMSCKASGYTFTNYWITWVKQRPGQGLEWIGDIYPVSGGTDYNEKFKTRATLTVDTSSSTAYMHLSSLTSEDSAVYYCARKGRGGVDYWGQGTTLTVSS
VL: DILMTQTPLSLPVSLGDQASISCRSSQSIVHSNANTYLEWYLQKPGQSPKLLIYKVSNRFSGVPDRFSGSGSGTDFTLKISRVEAEDLGVYFCSQSTHVPYTFGGGTKLEIK
notes: Phage-derived clone 29A03 with the NG site of CDRL1 mutated to NA
B4: c95E2D10 (antibody, V domains shown)
VH: QIQLQQSGPELVKPGASMKISCKASGYPFTDYYIHWVKQKPGQGLEWIGWIYPGSGNNKYNEKFKGKATLTVDTSPSTVYMQLSSLTSEDTAVYFCARRAGNYFDYWGQGTTLTVSS
VL: NIVMTQSPKSMSRSVGERVTLSCRASENVRTYVFWYQQKPGLSPKLLIYGASNRYIGVPDRFTGSGSATDFTLTISSVQAEDLADYHCGQSYSYPLTFGAGTKLELK

What was measured:
[1] = biological target: T2, human CD47, full length, on transfected cells (human, UniProt Q08722 19-323); experiment: flow cytometry (FACS) on CHOK1-hCD47 cells, mean fluorescence intensity
T2 construct: whole, on cells; also called CHOK1-hCD47
Description: (§1) The CHOK1-hCD47 stable cell lines and CHOK1-cCD47 stable cell lines were expanded to 90% confluence in a T-75 cell culture flask, the medium was exhausted, washed twice with HBSS buffer (Hanks balanced salt solution) (purchased from Invitrogen), and then treated and collected with enzyme-free cell dissociation solution (Versene solution: purchased from Life technology). The cells were washed twice with HBSS buffer. After counted, the cells were diluted with HBSS to 2×10⁶ cells per ml, added with 1% goat serum blocking solution, wherein the percentage was the mass percantage, incubated on ice for 30 minutes, and then washed twice with HBSS by centrifugation. […] The plate was washed 3 times with FACS buffer by centrifugation, added with 100 μl fixative solution [4% (v/v) Paraformaldehyde] per well to suspend the cells. 10 minutes later, it was washed twice with FACS buffer by centrifugation. The cells were suspended with 100 microliters of FACS buffer, FACS (FACS Calibur, purchased from BD) was used for detection and the results were analyzed.

[2] = biological target: T3, cynomolgus CD47, on CHOK1-cCD47 stable cell line (cynomolgus); experiment: flow cytometry (FACS) on CHOK1-cynoCD47 cells, mean fluorescence intensity
T3 construct: whole, on cells; check before use; also called CHOK1/cynoCD47; monkey-derived CD47
Description: as §1

[3] = biological target: T1, mouse CD47, on CHOK1/mCD47 cells; experiment: flow cytometry (FACS) on CHOK1-mCD47 cells, mean fluorescence intensity
[4] = biological target: T4, biotin-labeled CD47 extracellular domain protein (CD47-ECD) (UniProt Q08722 19-139, limits assumed, biotin-labeled (sites not given)); experiment: blocking ELISA: SIRPα-hFc coated, biotin-labeled CD47-ECD added with the antibody, OD450; blocked ligand SIRPα-hFc
T4 construct: extracellular domain; also called CD47 protein

[5] = biological target: T5, His-tagged CD47 recombinant protein, CD47-His (human, UniProt Q08722 19-141, limits assumed); experiment: BLI (Octet Red 96), antibody on AHC sensor, CD47-His 100 nM
T5 construct: it is not restated for CD47-His; also called human CD47-His protein; antigen CD47-His; not shown: His tag

[6] = biological target: T4, biotin-labeled CD47 extracellular …; experiment: blocking ELISA: SIRPα-hFc coated, biotin-labeled CD47-ECD added with the antibody, OD450; blocked ligand SIRPα-hFc; remark: listed apart in the source

| Binder | EC50 (read off the curve) [1] [nM] | EC50 (read off the curve) [2] [nM] | EC50 (read off the curve) [3] [nM] | IC50 (read off the curve) [4] [nM] | Kd [5] [nM] | koff [5] [s⁻¹] | kon [5] [M⁻¹ s⁻¹] | IC50 (read off the curve) [6] [nM] |
| --- | --- | --- | --- | --- | --- | --- | --- | --- |
| B1 | ~5 | ~3 | ~10 |  |  |  |  |  |
| B2 | ~5 | ~3 | ~10 | ~3 |  |  |  |  |
| B3 | ~5 | ~3 | ~10 | ~1 | 4.69 | 0.00207 | 442000 |  |
| B4 |  |  |  |  | 10.2 | 0.00358 | 350000 | ~1 |
